Experimental data from patent US20140004107A1 (published 2014).

Assays:
[1] = target: T1, cynomolgus monkey ST2 (SPR analyte) (cynomolgus monkey, UniProt Q01638 19-322 (human entry)); assay: SPR Biacore 3000, captured antibody, ST2 analyte, 25 C
T1 construct: The cyno ST2 reagent injected in SPR; leader is 1-18; also called cy ST2
T1 chain: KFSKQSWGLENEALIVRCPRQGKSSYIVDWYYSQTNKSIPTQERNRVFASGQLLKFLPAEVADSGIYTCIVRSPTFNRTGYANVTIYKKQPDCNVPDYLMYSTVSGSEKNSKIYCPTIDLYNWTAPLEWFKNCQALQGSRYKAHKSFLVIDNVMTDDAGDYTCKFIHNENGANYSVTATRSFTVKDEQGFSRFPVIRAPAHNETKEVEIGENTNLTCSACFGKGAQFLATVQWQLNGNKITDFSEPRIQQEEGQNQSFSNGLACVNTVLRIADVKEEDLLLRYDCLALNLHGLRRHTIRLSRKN

human ST2 (SPR analyte) [2] = target: T2, human ST2 (SPR analyte) (human, UniProt Q01638 19-322); assay: as above
T2 construct: The ST2 reagent injected in SPR; leader is 1-18; also called hu ST2
T2 sequence: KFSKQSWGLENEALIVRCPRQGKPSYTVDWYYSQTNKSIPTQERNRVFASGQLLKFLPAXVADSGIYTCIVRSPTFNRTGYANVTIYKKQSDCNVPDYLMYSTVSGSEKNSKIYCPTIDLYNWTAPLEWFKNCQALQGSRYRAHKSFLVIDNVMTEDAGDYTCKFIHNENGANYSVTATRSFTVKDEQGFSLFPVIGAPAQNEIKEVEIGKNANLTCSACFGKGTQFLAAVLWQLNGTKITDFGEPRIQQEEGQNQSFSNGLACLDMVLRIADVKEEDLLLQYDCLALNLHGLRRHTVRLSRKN

human ST2 (SPR analyte) [3] = target: T2, human ST2 (SPR analyte); assay: SPR Biacore 4000, kd at pH 5.5 against kd at pH 7.4
Method: (§1) The association (5 min) rates at pH 7.4 and dissociation (10 min) rates at pH 5.5 and 7.4 were monitored at a flow rate of 30 uL/min. The reference subtracted data was fit to a 1:1 model in Scrubber.

[4] = target: T3, human ST2 on human primary cells (human, UniProt Q01638 19-556); assay: cell-based or functional assay
T3 sequence: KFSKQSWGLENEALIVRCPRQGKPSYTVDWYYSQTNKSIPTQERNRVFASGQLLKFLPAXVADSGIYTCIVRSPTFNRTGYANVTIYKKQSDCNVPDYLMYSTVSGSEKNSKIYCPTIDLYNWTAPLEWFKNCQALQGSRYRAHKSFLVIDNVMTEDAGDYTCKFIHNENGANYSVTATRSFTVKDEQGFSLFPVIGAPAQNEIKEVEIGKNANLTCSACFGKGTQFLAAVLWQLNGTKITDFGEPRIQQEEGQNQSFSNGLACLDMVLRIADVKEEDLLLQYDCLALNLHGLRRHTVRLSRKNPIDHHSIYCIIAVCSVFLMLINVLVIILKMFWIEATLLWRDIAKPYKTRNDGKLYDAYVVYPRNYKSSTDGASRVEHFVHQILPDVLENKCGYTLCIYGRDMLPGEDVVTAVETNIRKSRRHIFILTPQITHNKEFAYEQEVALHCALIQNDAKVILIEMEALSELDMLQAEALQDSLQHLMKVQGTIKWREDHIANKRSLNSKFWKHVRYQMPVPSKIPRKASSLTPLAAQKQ

[5] = target: T4, soluble human ST2-FLAG His (human, UniProt Q01638 19-322, limits assumed); assay: AlphaScreen, biotinylated human IL-33 with human ST2-FH, antibody at 12.5 ug/ml
T4 construct: also called human ST2-FH; 6xhistidine tagged human ST2; not shown: FLAG and 6x histidine tags
T4 sequence: T2 sequence

human ST2 (SPR analyte) [6] = target: T2, human ST2 (SPR analyte); assay: SPR Biacore 4000, association at pH 7.4, dissociation at pH 7.4 (estimated kd)
Method: as §1

human ST2 (SPR analyte) [7] = target: T2, human ST2 (SPR analyte); assay: SPR Biacore 4000, association at pH 7.4, dissociation at pH 5.5 (estimated kd)
Method: as §1

[8] = target: T3, human ST2 on human primary cells; assay: cell-based or functional assay; remark: listed apart in the source
[9] = target: T5, biotinylated human ST2-Fc (human, UniProt Q01638 19-331, biotinylated); assay: AlphaScreen, IL-33 mediated association of biotinylated human ST2-Fc with human AcP-FH, antibody at 12.5 ug/ml
T5 construct: also called ST2-Fc fusion protein; not shown: human antibody Fc domain
T5 sequence: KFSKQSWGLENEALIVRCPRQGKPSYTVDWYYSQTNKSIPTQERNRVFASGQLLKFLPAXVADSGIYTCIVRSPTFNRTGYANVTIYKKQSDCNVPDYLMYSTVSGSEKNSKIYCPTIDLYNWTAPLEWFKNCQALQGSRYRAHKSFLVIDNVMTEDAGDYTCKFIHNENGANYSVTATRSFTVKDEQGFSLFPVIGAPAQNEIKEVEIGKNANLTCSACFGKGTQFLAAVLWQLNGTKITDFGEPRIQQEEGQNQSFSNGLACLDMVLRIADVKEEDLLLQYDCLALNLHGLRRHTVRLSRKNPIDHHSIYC
Method: In the second assay, antibodies were evaluated for the ability to inhibit the IL-33 mediated association of ST2 with the co-receptor AcP. […] The ST2/AcP AlphaScreen was conducted in 8 ul reactions in a 384 well optiplate (Perkin Elmer). […] After the addition of all assay components the plates were incubated overnight in the dark at room temperature. The next day the plates were read on a 2103 Envision multilable reader (Perkin Elmer) using the same parameters as above for the first assay.

[10] = target: T6, cynomolgus monkey ST2 on cynomolgus CD4+ T cells (cynomolgus monkey, UniProt Q01638 19-556 (human entry)); assay: cell-based or functional assay
T6 chain: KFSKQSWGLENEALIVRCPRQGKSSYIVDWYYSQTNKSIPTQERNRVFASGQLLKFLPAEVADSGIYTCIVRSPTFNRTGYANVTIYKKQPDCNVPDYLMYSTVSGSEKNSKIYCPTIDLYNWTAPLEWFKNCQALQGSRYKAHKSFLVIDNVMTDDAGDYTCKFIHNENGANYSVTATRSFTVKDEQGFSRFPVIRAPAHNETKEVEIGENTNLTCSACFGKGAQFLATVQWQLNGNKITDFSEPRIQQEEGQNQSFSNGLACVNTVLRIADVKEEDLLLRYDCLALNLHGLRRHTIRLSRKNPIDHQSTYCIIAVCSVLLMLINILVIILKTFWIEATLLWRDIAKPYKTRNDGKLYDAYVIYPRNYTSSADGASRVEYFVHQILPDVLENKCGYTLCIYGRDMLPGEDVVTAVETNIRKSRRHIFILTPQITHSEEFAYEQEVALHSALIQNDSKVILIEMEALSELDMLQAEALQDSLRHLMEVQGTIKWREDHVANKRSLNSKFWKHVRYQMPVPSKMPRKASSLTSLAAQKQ

[11] = target: T3, human ST2 on human primary cells; assay: cell-based or functional assay; remark: listed apart in the source

Kd [1]: 0.0322 nM
koff [1]: 1.16e-05 s⁻¹
kon [1]: 360000 M⁻¹ s⁻¹
Kd (human ST2 (SPR analyte) [2]): 0.0339 nM
koff (human ST2 (SPR analyte) [2]): 1.13e-05 s⁻¹
kon (human ST2 (SPR analyte) [2]): 333000 M⁻¹ s⁻¹
pH 5.5/pH 7.4 koff fold change (human ST2 (SPR analyte) [3]): 8 fold
IC50 of inhibition of IL-33-dependent IFN-γ response of human NK cells (IL-33 10 ng/mL plus IL-12) [4]: 0.0412 µg/mL
% inhib ST2-IL33 AS 12.5 ug/ml [5]: 99.2%
koff (human ST2 (SPR analyte) [6]): 2.98e-05 s⁻¹
koff (human ST2 (SPR analyte) [7]): 0.000238 s⁻¹
IC50 of inhibition of human IL-33-induced IL-5 production from human CD4+ T cells [8]: 5.25 nM
% inhib ST2-AcP AS 12.5 ug/ml [9]: 96.4%
IC-50, cynomolgus monkey CD4+ T cell IFNγ release assay (IL-33, IL-2 and IL-12p70 stimulation) [10]: 79.5 pM
IC-50, human eosinophil IL-8 release assay (IL-33 and IL-3 stimulation) [11]: 52.8 pM
B1: Ab2 (antibody, human IgG2, kappa, V domains shown)
VH: EVQLVQSGAEVKKPGESLKISCKGSGYSFTNYWIGWVRQMPGKGLEWMGIIYPGNSDTRFSPSFQGQVTISADKSITTAYLQWSSLKASDTAMYYCARHGTSSDYYGLDVWGQGTTVTVSS
VL: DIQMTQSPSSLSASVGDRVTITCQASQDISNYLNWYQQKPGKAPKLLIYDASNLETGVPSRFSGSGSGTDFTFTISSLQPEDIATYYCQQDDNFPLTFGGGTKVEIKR
notes: fully human anti-ST2 antibody
